According to PMC2913408 (Biochemistry, 2010):

How the values were obtained:
purified protein [1] = substrate: O=C(O)/C=C/C=C(\O)C(=O)O; assay: purified protein; type: biochemical, Chloroflexus aurantiacus; settings: 10 mM potassium phosphate, pH 7.3, 24 °C
purified protein [2] = substrate: O=C(O)/C(O)=C/c1ccccc1; assay: purified protein; settings: 10 mM potassium phosphate, pH 7.3, 24 °C

B1: hh4-OT (heterohexamer 4-oxalocrotonate tautomerase) (Chloroflexus aurantiacus J-10-fl) (protein)
chain 1: MLLLRITMLEGRSTEQKAELARALSAAAAAAFDVPLAEVRLIIQEVPPTHWTVGGISMAELRQQASTSTQGQ
chain 2: PMLEVFYSGDRPPDRTRKQAFAAEASAIFQRVIGTPPGRLQLIIQIVSPENTLAVIDLDRPDSDTTAEPDQQ
- Km (purified protein [1]): 70 ± 8 µM
- kcat (purified protein [1]): 3000 ± 100 s⁻¹
- kcat/Km (purified protein [1]): 4.3e+07 M⁻¹ s⁻¹
- Km (purified protein [2]): 121 ± 20 µM
- kcat (purified protein [2]): 13 s⁻¹
- kcat/Km (purified protein [2]): 110000 M⁻¹ s⁻¹
